Assay results as given in paper PMC8642242.

Target: SARS-CoV-2 stabilized S trimer (HexaPro) (SARS-CoV-2)

Row | Substance | IC50 of neutralization of SARS-CoV-2 (IL1/2020) pseudovirus (pSV assay) [ng ml^−1]
1 | WRAIR-2123 (human IgG1) (antibody) | 4
2 | WRAIR-2165 (human IgG1) (antibody) | 10
3 | WRAIR-2173 (human IgG1) (antibody) | 4
